This assay concerns the target T1, p110αEE^E545K/p85α complex (E545K oncogenic mutant PI3Kα) (human, UniProt P42336 1-1068; P27986 1-724, E545K).
T1 construct: p110α catalytic subunit of Class 1A PI3K, human, full length, somatic cancer mutation E545K in the helical domain; p85α regulatory subunit of Class 1A PI3K, human, full length; 1:1 heterodimer; also called E545K mutant; p110α^E545K/p85α; not shown: EE tag (glu-tag, 6 amino acids), C-terminal, kept; copies: 1 + 1
As to the kind of experiment: pull-down; GST fusion proteins (1 μg) on glutathione agarose, PI3Kα complexes (100–3200 ng) in solution; TBS with 10% (v/v) FBS, 1 h at 4°C; washes in TBS with 0.1% Tween 20; bound PI3Kα detected by immunoblot for p85α. The conditions noted are these: both partners purified.

T1 sequence (P42336 whole entry E545K, chain 1 of 2, the tested form may be a part): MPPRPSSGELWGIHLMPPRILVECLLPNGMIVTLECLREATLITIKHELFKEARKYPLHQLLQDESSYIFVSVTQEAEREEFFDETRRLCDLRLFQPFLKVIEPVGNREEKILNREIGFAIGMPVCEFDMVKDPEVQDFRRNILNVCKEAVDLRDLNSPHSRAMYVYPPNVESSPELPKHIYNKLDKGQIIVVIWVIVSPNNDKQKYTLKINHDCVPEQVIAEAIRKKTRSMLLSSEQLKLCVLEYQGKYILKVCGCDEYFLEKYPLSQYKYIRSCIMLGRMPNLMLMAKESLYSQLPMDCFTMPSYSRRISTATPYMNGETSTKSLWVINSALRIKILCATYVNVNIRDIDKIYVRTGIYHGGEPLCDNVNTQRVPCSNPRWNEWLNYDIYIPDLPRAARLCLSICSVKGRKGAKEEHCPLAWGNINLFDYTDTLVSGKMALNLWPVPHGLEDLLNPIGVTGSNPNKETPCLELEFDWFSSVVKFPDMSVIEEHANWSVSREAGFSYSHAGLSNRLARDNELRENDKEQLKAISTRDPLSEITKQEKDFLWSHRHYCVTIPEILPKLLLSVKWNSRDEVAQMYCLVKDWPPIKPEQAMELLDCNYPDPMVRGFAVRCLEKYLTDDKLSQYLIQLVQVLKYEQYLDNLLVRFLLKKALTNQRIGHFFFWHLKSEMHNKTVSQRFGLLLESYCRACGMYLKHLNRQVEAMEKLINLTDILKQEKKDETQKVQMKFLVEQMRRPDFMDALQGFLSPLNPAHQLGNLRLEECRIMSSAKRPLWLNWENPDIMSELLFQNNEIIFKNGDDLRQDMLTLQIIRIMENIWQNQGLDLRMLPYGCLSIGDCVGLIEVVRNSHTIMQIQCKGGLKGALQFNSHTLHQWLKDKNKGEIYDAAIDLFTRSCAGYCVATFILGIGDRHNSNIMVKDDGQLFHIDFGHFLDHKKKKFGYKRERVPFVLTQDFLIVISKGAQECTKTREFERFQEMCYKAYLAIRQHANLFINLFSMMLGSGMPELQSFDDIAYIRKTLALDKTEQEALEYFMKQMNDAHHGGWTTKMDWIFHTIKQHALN
T1 sequence (P27986 whole entry, chain 2 of 2, the tested form may be a part): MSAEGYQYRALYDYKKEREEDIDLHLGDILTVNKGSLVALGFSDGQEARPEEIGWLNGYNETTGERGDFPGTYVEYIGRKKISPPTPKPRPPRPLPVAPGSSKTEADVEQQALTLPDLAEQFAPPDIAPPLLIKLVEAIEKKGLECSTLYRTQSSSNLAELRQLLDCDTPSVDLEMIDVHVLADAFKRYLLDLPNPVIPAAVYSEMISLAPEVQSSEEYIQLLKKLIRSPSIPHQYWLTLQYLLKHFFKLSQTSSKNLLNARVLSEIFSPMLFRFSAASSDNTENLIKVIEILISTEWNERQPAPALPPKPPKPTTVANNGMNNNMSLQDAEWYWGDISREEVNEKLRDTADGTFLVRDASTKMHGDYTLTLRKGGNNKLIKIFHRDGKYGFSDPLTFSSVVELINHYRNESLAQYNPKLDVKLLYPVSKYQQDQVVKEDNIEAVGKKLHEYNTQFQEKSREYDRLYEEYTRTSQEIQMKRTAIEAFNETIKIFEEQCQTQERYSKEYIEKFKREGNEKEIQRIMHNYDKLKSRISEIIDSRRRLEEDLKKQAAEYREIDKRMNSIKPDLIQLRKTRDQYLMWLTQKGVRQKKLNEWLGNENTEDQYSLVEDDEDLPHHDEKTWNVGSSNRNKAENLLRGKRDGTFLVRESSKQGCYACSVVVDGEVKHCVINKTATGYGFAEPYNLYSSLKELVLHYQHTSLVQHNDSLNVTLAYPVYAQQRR

B1: GST-V12 Cdc42 (constitutively active Cdc42Hs) (natural protein)
chain: not shown
notes: Cdc42Hs, human, constitutively active (V12) form; Plasmid courtesy of Professor Anne Ridley; also called GST-Cdc42; source: E. coli BL21 (DE3), purified (glutathione agarose)
For B1, the binding result is reported as “binds”.

The record behind these values is publication PMC3985441 (Bioscience Reports, 2014).
